This passage reports logFC.mWT.over.Luc results from patent US20240368668A1, “SUBSTRATES AND BIOMARKERS OF ADAMTS7” (The Broad Institute, Inc., priority 2021, published 2024).

Square brackets hold non-standard residues; d marks the D form. Ends that are not written are not given here. Met(O) = CS(=O)CC[C@H](N)C(=O)O

This assay deals with T1, mouse ADAMTS7 (Mus musculus, UniProt Q68SA9).
T1 construct: Full-length mouse Adamts7 1-1857 (Uniprot Q68SA9, WT or E373Q catalytic mutant); expressed in transfected cells; host or cells: Human Coronary Artery Smooth Muscle Cells (HCA-SMC, Lonza), adenovirus 50 MOI
T1 sequence (Q68SA9 221-1657): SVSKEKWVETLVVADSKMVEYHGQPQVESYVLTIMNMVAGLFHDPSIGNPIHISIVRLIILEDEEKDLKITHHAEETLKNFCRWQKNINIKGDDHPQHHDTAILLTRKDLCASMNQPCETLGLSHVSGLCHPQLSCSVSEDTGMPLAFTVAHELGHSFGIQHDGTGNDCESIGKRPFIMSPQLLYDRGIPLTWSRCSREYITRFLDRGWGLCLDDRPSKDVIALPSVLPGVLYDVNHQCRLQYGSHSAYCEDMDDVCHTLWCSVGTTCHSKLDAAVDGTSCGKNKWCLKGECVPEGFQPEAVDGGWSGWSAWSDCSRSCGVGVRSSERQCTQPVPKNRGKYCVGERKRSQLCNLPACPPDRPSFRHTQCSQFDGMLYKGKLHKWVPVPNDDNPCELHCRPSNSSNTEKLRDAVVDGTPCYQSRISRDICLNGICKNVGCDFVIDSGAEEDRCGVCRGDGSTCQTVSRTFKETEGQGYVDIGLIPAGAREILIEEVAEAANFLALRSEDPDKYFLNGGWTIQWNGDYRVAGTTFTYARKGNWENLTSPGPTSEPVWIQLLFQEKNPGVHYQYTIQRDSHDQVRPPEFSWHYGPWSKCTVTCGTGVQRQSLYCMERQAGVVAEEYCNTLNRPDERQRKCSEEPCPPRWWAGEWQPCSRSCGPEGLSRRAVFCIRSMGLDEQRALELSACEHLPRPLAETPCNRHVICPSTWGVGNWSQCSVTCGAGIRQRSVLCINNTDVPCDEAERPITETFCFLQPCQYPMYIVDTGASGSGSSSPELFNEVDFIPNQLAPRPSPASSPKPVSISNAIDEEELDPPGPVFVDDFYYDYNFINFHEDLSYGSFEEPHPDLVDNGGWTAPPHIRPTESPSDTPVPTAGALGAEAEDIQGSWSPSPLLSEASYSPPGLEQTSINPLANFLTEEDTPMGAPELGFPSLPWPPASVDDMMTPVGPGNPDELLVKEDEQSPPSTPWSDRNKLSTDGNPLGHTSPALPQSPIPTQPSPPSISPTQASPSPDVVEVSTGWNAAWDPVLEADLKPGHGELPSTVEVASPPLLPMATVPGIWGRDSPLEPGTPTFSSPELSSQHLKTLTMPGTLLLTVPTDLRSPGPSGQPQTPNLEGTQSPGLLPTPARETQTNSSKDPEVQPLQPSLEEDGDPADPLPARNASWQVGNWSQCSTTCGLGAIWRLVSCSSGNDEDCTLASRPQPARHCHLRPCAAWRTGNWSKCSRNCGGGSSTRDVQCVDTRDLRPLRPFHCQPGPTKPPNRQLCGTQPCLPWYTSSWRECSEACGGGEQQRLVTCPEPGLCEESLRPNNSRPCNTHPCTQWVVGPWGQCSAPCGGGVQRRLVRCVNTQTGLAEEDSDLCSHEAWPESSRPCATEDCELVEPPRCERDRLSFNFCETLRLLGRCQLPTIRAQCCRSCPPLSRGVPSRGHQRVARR
As to the kind of experiment: TMT10 TAILS N-terminomics, HUVEC experiment (process replicates, trypsin/AspN digest). Format: cell-based, human. Conditions: HUVEC TAILS HC; log fold change of N-terminal peptide, Ad-mADAMTS7 WT over Luc. Summed up: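 Full-length mouse ADAMTS7 (WT or E373Q mutant, C-terminal 3xFLAG) or luciferase was transduced via adenovirus, 50 MOI, into HCA-SMC (SMC1, SMC2) or HUVEC. SMC1: pooled media, technical triplicates 400 ug; SMC2: process triplicates 300 ug; HUVEC: process triplicates 200 ug, bFGF2 10 ng/ml.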
Substance “ASMT_321 (LSSAGFR; listed as Homo sapiens)” returned a logFC.mWT.over.Luc of 2.18.
“BICD1_280 (NNDDKMNGHIHGPLVKLNGDYR; listed as Homo sapiens)” gave a logFC.mWT.over.Luc of 1.23.
The result for “CLU_267 (FQHPPTEFIR; listed as Homo sapiens)” reads 1.56.
In the case of “CTGF_173 (TVVGPALAAYR; listed as Homo sapiens)” it was 2.94; in that of “CTGF_174 (VVGPALAAYR; listed as Homo sapiens)”, 2.13; in that of “FN1_1624 (LVQTAVTTIPAPT; listed as Homo sapiens)”, 1.40.
On to “FN1_1743 (WESPQGQVSR; listed as Homo sapiens)”, for which the logFC.mWT.over.Luc stood at 2.86.
Consider “LTBP2_129 (QQQPAPR; listed as Homo sapiens)”, for which the logFC.mWT.over.Luc came to 4.83.
The result for “LTBP2_253 (GEGTLAR; listed as Homo sapiens)” reads 2.90.
In the case of “LTBP3_164 (LSTGALPPLAPEG; listed as Homo sapiens)” it was 1.82; in that of “LTBP3_205 (HAAFLVPLGPGQISA; listed as Homo sapiens)”, 2.41.
On to “LTBP3_221 (VQAPPPVVNVR; listed as Homo sapiens)”, for which the logFC.mWT.over.Luc amounted to 2.72.
The result for “MCFD2_55 (HLEGVINKPEA; listed as Homo sapiens)” reads 1.13; that for “PSAP_301 (LVEPIKKH; listed as Homo sapiens)”, 2.38.
The result for “PTBP1_376 (AAAAAGR; listed as Homo sapiens)” reads 1.11; that for “PZP_578 (HAHLQVAAAPQSLCALR; listed as Homo sapiens)”, 2.11.
In the case of “THBS1_630 (FGQGVEHATANK; listed as Homo sapiens)” it was 2.27.
“UQCRH_76 (HGSPNNSERAMRAVGE[Met(O)]CKGPGAAR; listed as Homo sapiens)” registered a logFC.mWT.over.Luc of 1.39.
The result for “ZYX_244 (PVSLANTQPR; listed as Homo sapiens)” reads 1.20.
